Measured values reported in publication PMC8499627 (Antibody Therapeutics, 2021).

T1: SEQ13 peptide (HBsAg aa 113-135) (Hepatitis B virus, strain  …, UniProt P03141)
T1 construct: source: synthetic peptide, bought: Sangon Biotech
T1 chain: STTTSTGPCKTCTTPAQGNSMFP


What was measured:
Conditions in all cases: both partners purified
[1] = molecular target: T1, SEQ13 peptide (HBsAg aa 113-135); experiment: ELISA; indirect ELISA kits (Beijing Wantai) on HBsAg, CR-T3-SEQ13 or SEQ13 peptides; purified antibodies titrated, EC50s
[2] = molecular target: T2, Recombinant HBsAg protein (hepatitis B surface antigen) (Hepatitis B virus, strain ; …, UniProt P03141); experiment: SPR; Biacore 3000, 10°C; HBsAg immobilised (2 400 RU, sodium acetate pH 4.5); antibody 1.56-100 nM, 50 μL/min, 90 sec association, 600 sec dissociation
T2 construct: source: bought: Beijing Wantai Biological Pharmacy Enterprise

[3] = molecular target: T2, Recombinant HBsAg protein (hepatitis B …); experiment: ELISA; indirect ELISA kits (Beijing Wantai) on HBsAg, CR-T3-SEQ13 or SEQ13 peptides; purified antibodies titrated, EC50s

Binder | binding result [1] | Kd [2] | binding result [3]
hu1-23 (antibody, V domains shown, humanized VH: CDRs (IMGT) of C1-23 grafted on the most closely related human germline; humanized VK: CDRs (IMGT) of C1-23 grafted on the most closely related human germline; Human IgG1 CH and CK constant regions; also called humanized 1-23; Humanized antibody hu1-23; source: HEK-293F, transfected, purified (protein A)) VH: QVQLQESGPGLVKPSETLSLTCTVSGGSITSNFWSWIRQPPGKGLEWIGYISGSGTYTDYNPSLKSRVTISVDTSKNQFSLKLSSVTAADTAVYYCARSHDYGSNDYAFDFWGQGTTVTVSS VL: DIQMTQSPSSLSASVGDRVTITCRATQDISSSLNWYQQKPGKAPKLLIYYANRLQSGVPSRFSGSGSGTDFTLTISSLQPEDFATYYCQQYHSLPLTFGGGTKVEIK | binds | 1.06 nM | –
C1-23 (antibody, V domains shown, cynomolgus monkey VH of monkey #1; cynomolgus monkey VL of monkey #1; Monkey-human chimeric antibody, human IgG1 constant regions; parent of hu1-23; source: HEK-293F, transfected, purified (protein A)) VH: QVQLQESGPGLVKPSEILSVTCSVSGGSITSNFWSWIRQPPGKGLEWIGYISGSGTYTDYNPSLRSRVTLSVDTSKNQLSLKLSSVTAADTAVYYCARSHDYGSNDYAFDFWGQGLRVTVSS VL: EIVMTQSPSSLSASVGDRVTITCRATQDISSSLNWYQQKPGKAPQLLIYYANRLESGVPSRFRGSGSGTEFTLTISSLQPEDFTTYYCQQYHSLPLTFGGGTKVEIK | binds | – | binds
C3-13 (antibody, V domains shown, cynomolgus monkey VH of monkey #3; cynomolgus monkey VL of monkey #3; Monkey-human chimeric antibody, human IgG1 constant regions; source: HEK-293F, transfected, purified (protein A)) VH: QVQLQESGPRLVKSSETLPLTCAVSGASNSSNYWSWIRQPPGKGLEWIGRIYGNSGSTDYNPSLKSRVSISTDTSKNQFSLKLSSVTAADTAVYFCARGSVYTYSWGQGVLVTVSS VL: DIQMSQSPDSLAVSLGERVTINCKSSQSLLYSSNNKNYLAWYQQKPGQAPKLLFYWASTRESGVPNRFSGSGSGTDFTLTIRGLQAEDVAVYYCQQHYTTPLTFGQGTKVEIK | binds | – | binds
